Measurements from US9457062B2, “Chaperonin 10-induced immunomodulation” (CBIO LIMITED, priority 2005, dated 2016).

B1: IFNγ: recombinant mouse IFNγ (Chemicon), non-TLR agonist (protein, UniProt P01580 23-155, looked up)
Interferon gamma: HGTVIESLESLNNYFNSSGIDVEEKSLFLDIWRNWQKDGDMKILQSQIISFYLRLFEVLKDNQAISNNISVIESHLITTFFSNSKAKKDAFMSIAKFEVNNPQVQRQAFNELIRVVHQLLPESSLRKRKRSRC
B2: Hsp60: chaperonin 60, protein folding partner of Cpn10 (protein)
chain: AKDVKFGADARALMLQGVDLLADAVAVTMGPKGRTVIIEQSWGSPKVTKDGVTVAKSIDLKDKYKNIGAKLVQDVANNTNEEAGDGTTTATVLARSIAKEGFEKISKGANPVEIRRGVMLAVDAVIAELKKQSKPVTTPEEIAQVATISANGDKEIGNIISDAMKKVGRKGVITVKDGKTLNDELEIIEGMKFDRGYISPYFINTSKGQKCEFQDAYVLLSEKKISSIQSIVPALEIANAHRKPLVIIAEDVDGEALSTLVLNRLKVGLQVVAVKAPGFGDNRKNQLKDMAIATGGAVFGEEGLTLNLEDVQPHDLGKVGEVIVTKDDAMLLKGKGDKAQIEKRIQEIIEQLDVTTSEYEKEKLNERLAKLSDGVAVLKVGGTSDVEVNEKKDRVTDALNATRAAVEEGIVLGGGCALLRCIPALDSLTPANEDQKIGIEIIKRTLKIPAMTIAKNAGVEGSLIVEKIMQSSSEVGYDAMAGDFVNMVEKGIIDPTKVVRTALLDAAGVASLLTTAEVVVTEIPKEEKDPGMGAMGGMGGGMGGGMF

Key:
[1] = test system: Cpn10 promoter; test: Cpn10 promoter luciferase reporter (pCAT/LUC-CPN) in RAW264.7 cells; format: cell-based, mouse; details: optimal agonist concentrations (FIG. 18H): IFNγ 1 ng/ml, IL-1β 1 ng/ml, TNF-α 100 ng/ml
Text: Reagents. Recombinant human Cpn10 was produced to GMP specifications by BresaGen Limited (Adelaide, Aus) essentially as described previously (Johnson, B. 2005. J. Biol Chem 280:4037-4047). […] For FACS analysis, a cysteine residue was engineered onto the C-terminus of Cpn10 and labeled with AlexFluor647 (Invitrogen) according to manufacturer's instructions. […] TLR ligands and cytokines included: E. coli LPS (strain 055:B5, Sigma), E. coli ultra-pure LPS (0111:B4 Sigma), S. aureus LTA, B. subtilis LTA, S. aureus PGN, B. subtilis PGN, zymosan cell wall from S. cerevisae, poly(I:C), imiquimod R837, CpG ODN 1826 and ODN2216, GpC ODN1826 control, (all from Invivogen, San Diego, Calif.), recombinant mouse IFNγ, (Chemicon), IL-1β (PeproTech), and recombinant human TNF-α (Invivogen). Antibodies. Rabbit polyclonal antibodies were raised against Cpn10 and affinity purified at CBio. […] After 24 h cells were harvested and cell viability assessed by trypan blue dye exclusion. […] Cells were washed, harvested in Cell Culture Lysis Reagent (CCLR, Promega) and firefly luciferase signal measured using the Luciferase Assay System (Promega) and the Wallac Victor 2 Multilabel Counter (Perkin-Elmer). […] Cells were assessed for viability, pooled per condition (n=4), pelleted by centrifugation and resuspended in CCLR.

[2] = molecular target: T1, TLR4 (Homo sapiens, UniProt O00206); test: FRET with TLR4 on MonoMac 6 cells; format: binding
T1 construct: endogenous in cells; host or cells: freshly isolated human monocytes; human monocyte-derived DC
Procedure: (§1) Cell labeling for FRET. MonoMac 6 cells (a human monocytic cell line) were labeled with 100 μl of a mixture of donor conjugated antibody (Cy3) and acceptor conjugated antibody (Cy5). For labelling of Cpn10, an anti-Cpn10 rabbit polyclonal antibody was used. […] The cells were fixed in order to prevent potential re-organisation of the proteins during the course of the experiment. Confocal imaging. Cells were imaged on a Carl Zeiss, Inc. LSM510 confocal microscope (with an Axiovert 200 fluorescent microscope) using a 1.4 NA 63× Zeiss objective. The images were analysed using LSM 2.5 image analysis software (Carl Zeiss, Inc.). Cy3 and Cy5 were detected using the appropriate filter sets. Using typical exposure times for image acquisition (less than 5 s), no fluorescence was observed from a Cy3-labelled specimen using the Cy5 filters, nor was Cy5 fluorescence detected using the Cy3 filter sets. FRET measurements. […] In the present study, FRET was measured using a method as previously described (Kenworthy and […] (1998) Journal of Cell Biology 142: 69-84; Kenworthy and […] (1998) in Gelb, M. H. (Ed.) Methods in molecular Biology. Humana Press Inc, Totowa, N.J. pp 37-49). Briefly, samples were labeled with donor and acceptor conjugated antibodies, and energy transfer was detected as an increase in donor fluorescence (dequenching) after complete photobleaching of the acceptor molecule. […]

[3] = test system: GM1; test: FRET with GM1 (lipid rafts) on MonoMac 6 cells; format: binding, human; details: donor GM1
Procedure: Cell labeling for FRET. MonoMac 6 cells (a human monocytic cell line) were labeled with 100 μl of a mixture of donor conjugated antibody (Cy3) and acceptor conjugated antibody (Cy5). For labelling of Cpn10, an anti-Cpn10 rabbit polyclonal antibody was used. The cells were rinsed twice in PBS/0.02% BSA, prior to fixation with 4% formaldehyde for 15 min. The cells were fixed in order to prevent potential re-organisation of the proteins during the course of the experiment. Confocal imaging. Cells were imaged on a Carl Zeiss, Inc. LSM510 confocal microscope (with an Axiovert 200 fluorescent microscope) using a 1.4 NA 63× Zeiss objective. The images were analysed using LSM 2.5 image analysis software (Carl Zeiss, Inc.). Cy3 and Cy5 were detected using the appropriate filter sets. Using typical exposure times for image acquisition (less than 5 s), no fluorescence was observed from a Cy3-labelled specimen using the Cy5 filters, nor was Cy5 fluorescence detected using the Cy3 filter sets. FRET measurements. FRET is a non-invasive imaging technique used to determine molecular proximity. […]
In the present study, FRET was measured using a method as previously described (Kenworthy and Edidin (1998) Journal of Cell Biology 142: 69-84; Kenworthy and Edidin (1998) in Gelb, M. H. (Ed.) Methods in molecular Biology. Humana Press Inc, Totowa, N.J. pp 37-49). […]

[4] = molecular target: T2, CD14 (Homo sapiens, UniProt P08571); test: FRET with CD14 on MonoMac 6 cells; format: binding
T2 construct: MonoMac 6 cells (a human monocytic cell line); endogenous in cells; host or cells: MonoMac 6
T2 sequence (P08571 20-345): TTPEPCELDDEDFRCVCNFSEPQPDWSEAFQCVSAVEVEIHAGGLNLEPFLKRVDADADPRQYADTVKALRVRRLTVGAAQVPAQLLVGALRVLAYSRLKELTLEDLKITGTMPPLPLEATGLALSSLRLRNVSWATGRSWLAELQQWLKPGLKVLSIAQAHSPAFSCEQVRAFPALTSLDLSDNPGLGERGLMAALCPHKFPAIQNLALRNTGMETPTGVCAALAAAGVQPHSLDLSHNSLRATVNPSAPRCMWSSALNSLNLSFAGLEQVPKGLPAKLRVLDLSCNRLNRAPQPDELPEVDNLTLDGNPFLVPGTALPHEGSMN
Procedure: as §1

T1 sequence (O00206 24-839): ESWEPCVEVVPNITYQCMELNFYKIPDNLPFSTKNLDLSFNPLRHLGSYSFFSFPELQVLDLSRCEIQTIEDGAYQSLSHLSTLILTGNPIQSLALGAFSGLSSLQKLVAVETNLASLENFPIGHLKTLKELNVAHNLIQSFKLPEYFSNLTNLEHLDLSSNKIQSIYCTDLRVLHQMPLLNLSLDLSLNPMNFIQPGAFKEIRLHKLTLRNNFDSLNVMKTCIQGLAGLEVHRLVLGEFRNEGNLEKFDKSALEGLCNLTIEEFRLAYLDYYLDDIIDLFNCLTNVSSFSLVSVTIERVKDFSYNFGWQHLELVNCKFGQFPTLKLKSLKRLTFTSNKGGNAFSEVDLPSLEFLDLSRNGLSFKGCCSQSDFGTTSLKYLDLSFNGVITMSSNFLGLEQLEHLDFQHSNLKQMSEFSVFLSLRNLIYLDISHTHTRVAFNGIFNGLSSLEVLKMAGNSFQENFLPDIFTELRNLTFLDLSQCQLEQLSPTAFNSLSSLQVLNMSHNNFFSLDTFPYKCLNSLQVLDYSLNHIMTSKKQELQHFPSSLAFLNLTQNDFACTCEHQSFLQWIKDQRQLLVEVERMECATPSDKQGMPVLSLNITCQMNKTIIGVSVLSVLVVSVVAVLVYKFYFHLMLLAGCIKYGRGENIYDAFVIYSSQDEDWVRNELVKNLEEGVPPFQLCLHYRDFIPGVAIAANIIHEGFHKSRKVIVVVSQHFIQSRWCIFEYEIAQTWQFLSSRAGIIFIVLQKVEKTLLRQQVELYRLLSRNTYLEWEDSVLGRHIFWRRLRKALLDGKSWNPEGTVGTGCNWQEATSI

Molecule	up-regulation of the Cpn10 promoter [1]	E ± ΔE (%) energy transfer efficiency ([2]; MM6 cells stimulated with LPS) [%]	E ± ΔE (%) energy transfer efficiency ([2]; Unstimulated MM6 cells) [%]	E ± ΔE (%) energy transfer efficiency ([3]; MM6 cells stimulated with LPS) [%]	E ± ΔE (%) energy transfer efficiency ([3]; Unstimulated MM6 cells) [%]	E ± ΔE (%) energy transfer efficiency ([4]; MM6 cells stimulated with LPS) [%]	E ± ΔE (%) energy transfer efficiency ([4]; Unstimulated MM6 cells) [%]
B1	did not induce substantial up-regulation						
B2		6 ± 1.0	5 ± 1.0	8 ± 2.0	6 ± 0.5	4 ± 2.0	6 ± 0.5
